PMC7111185 (Biochemical and Biophysical Research Communications, 2004)

Target: 30a-HR1 (His-tagged heptad repeat 1 region of SARS-CoV spike protein, amino acids 898-1005) (SARS-CoV, UniProt P59594 898-1005)
Experiment: pull-down

GDISGINASVVNIQKEIDRLNEVAKNLNESLIDLQELG (domain or fragment) [GST-HR2-38 (GST fusion of SARS-CoV spike HR2, amino acids 1149-1186)]
binding result: binds
